This note sets out measurements from US20240252592A1 (TIANJIN INSTITUTE OF PHARMACEUTICAL RESEARCH, published 2024).

Numbered stars: 1 amine (or outer) side, 2 acyl side, 3 side chain; on linkers, the order of the positions; unused ones are H or OH. Square brackets hold non-standard residues; d marks the D form. Side chains are listed from the residue outwards. Ends that are not written are not given here. * marks the point of attachment. OC17H32COOH = fatty diacid acyl group -OC17H32COOH on the linker; C20 diacid = O=C(O)CCCCCCCCCCCCCCCCCCC(=O)*; C18 diacid = O=C(O)CCCCCCCCCCCCCCCCC(=O)*; γGlu = O=C(O)[C@H](CCC(=O)[*:2])N[*:1]; Palmitoyl = CCCCCCCCCCCCCCCC(=O)*; AEEA = NCCOCCOCC(=O)O; Aib = CC(C)(N)C(=O)O

The labels stand for the following.
B1: Compound 74 (peptide)
peptide: H[Aib]QGTFTSDYSKYLEEKRAK([AEEA-AEEA-γGlu-C18 diacid])EFVAWLEGGPSSG-NH2
modifications: not fully specified; printed as HAibQGTFTSDYSKYLEEKRAK**EFVAWLEGGPSSG-Amid
B2: Compound 53 (peptide)
peptide: H[Aib]QGTFTSDYSKYLEEKRAK([AEEA-AEEA-γGlu-C18 diacid])EFVAWLEAGGPSSG-NH2
modifications: not fully specified; printed as HAibQGTFTSDYSKYLEEKRAK**EFVAWLEAGGPSSG-Amid
B3: Compound 57 (peptide)
peptide: H[Aib]QGTFTSDYSKYLDEKRAK([γGlu-γGlu-Palmitoyl])EFIAWLEAGGPSSG-NH2
modifications: not fully specified; printed as HAibQGTFTSDYSKYLDEKRAK*EFIAWLEAGGPSSG-Amid
B4: Compound 54 (peptide)
peptide: H[Aib]QGTFTSDYSKYLEEKRAK([AEEA-AEEA-γGlu-C18 diacid])EFVEWLEAGGPSSG-NH2
modifications: not fully specified; printed as HAibQGTFTSDYSKYLEEKRAK**EFVEWLEAGGPSSG-Amid
B5: Compound 69 (peptide)
peptide: H[Aib]QGTFTSDYSKYLDERKAK([γGlu-γGlu-Palmitoyl])EFVEWLEGGPSSG-NH2
modifications: not fully specified; printed as HAibQGTFTSDYSKYLDERKAK*EFVEWLEGGPSSG-Amid
B6: Compound 44 (peptide)
peptide: H[Aib]QGTFTSDYSKYLEERKAK([AEEA-AEEA-γGlu-C18 diacid])EFIAWLEAGGPSSG-NH2
modifications: not fully specified; printed as HAibQGTFTSDYSKYLEERKAK**EFIAWLEAGGPSSG-Amid
B7: Compound 62 (peptide)
peptide: H[Aib]QGTFTSDYSKYLEERKAK([γGlu-γGlu-Palmitoyl])EFVEWLEGGPSSG-NH2
modifications: not fully specified; printed as HAibQGTFTSDYSKYLEERKAK*EFVEWLEGGPSSG-Amid
B8: Compound 76 (peptide)
peptide: H[Aib]QGTFTSDYSKYLEEKRAK([γGlu-γGlu-Palmitoyl])EFVEWLEGGPSSG-NH2
modifications: not fully specified; printed as HAibQGTFTSDYSKYLEEKRAK*EFVEWLEGGPSSG-Amid
B9: Compound 42 (peptide)
peptide: H[Aib]QGTFTSDYSKYLDERKAK([AEEA-AEEA-γGlu-C18 diacid])EFVEWLEAGGPSSG-NH2
modifications: not fully specified; printed as HAibQGTFTSDYSKYLDERKAK**EFVEWLEAGGPSSG-Amid
B10: Compound 66 (peptide)
peptide: H[Aib]QGTFTSDYSKYLDERKAK([AEEA-AEEA-γGlu-OC17H32COOH])EFIEWLEGGPSSG-NH2
modifications: not fully specified; printed as HAibQGTFTSDYSKYLDERKAK**EFIEWLEGGPSSG-Amid
B11: Compound 50 (peptide)
peptide: H[Aib]QGTFTSDYSKYLDEKRAK([AEEA-AEEA-γGlu-C18 diacid])EFIAWLEAGGPSSG-NH2
modifications: not fully specified; printed as HAibQGTFTSDYSKYLDEKRAK**EFIAWLEAGGPSSG-Amid
B12: Compound 1 (peptide)
peptide: HXQGTFTSDKSKYLXERAAKEFIXWLEAGGPSSG
HELM: PEPTIDE1{H.[Aib].Q.G.T.F.T.S.D.K.S.K.Y.L.E.E.R.A.A.K.E.F.I.A.W.L.E.A.G.G.P.S.S.G.[am]}|PEPTIDE2{[CCCCCCCCCCCCCCCC(=O)[*:2]].[gGlu].[gGlu]}$PEPTIDE1,PEPTIDE2,10:R3-3:R2$$$V2.0; N-terminus assumed
SMILES: CCCCCCCCCCCCCCCC(=O)N[C@@H](CCC(=O)N[C@@H](CCC(=O)NCCCC[C@H](NC(=O)[C@H](CC(=O)O)NC(=O)[C@H](CO)NC(=O)[C@@H](NC(=O)[C@H](Cc1ccccc1)NC(=O)[C@@H](NC(=O)CNC(=O)[C@H](CCC(N)=O)NC(=O)C(C)(C)NC(=O)[C@@H](N)Cc1c[nH]cn1)[C@@H](C)O)[C@@H](C)O)C(=O)N[C@@H](CO)C(=O)N[C@@H](CCCCN)C(=O)N[C@@H](Cc1ccc(O)cc1)C(=O)N[C@@H](CC(C)C)C(=O)N[C@@H](CCC(=O)O)C(=O)N[C@@H](CCC(=O)O)C(=O)N[C@@H](CCCNC(=N)N)C(=O)N[C@@H](C)C(=O)N[C@@H](C)C(=O)N[C@@H](CCCCN)C(=O)N[C@@H](CCC(=O)O)C(=O)N[C@@H](Cc1ccccc1)C(=O)N[C@H](C(=O)N[C@@H](C)C(=O)N[C@@H](Cc1c[nH]c2ccccc12)C(=O)N[C@@H](CC(C)C)C(=O)N[C@@H](CCC(=O)O)C(=O)N[C@@H](C)C(=O)NCC(=O)NCC(=O)N1CCC[C@H]1C(=O)N[C@@H](CO)C(=O)N[C@@H](CO)C(=O)NCC(N)=O)[C@@H](C)CC)C(=O)O)C(=O)O
B13: Compound 79 (peptide)
peptide: B12 peptide
modifications: not fully specified; Lys 10 side chain -Ado-Ado-γE-OC17H32COOH; C-terminal amide
B14: Compound 68 (peptide)
peptide: H[Aib]QGTFTSDYSKYLEERKAK([AEEA-AEEA-γGlu-C20 diacid])EFIAWLEGGPSSG-NH2
modifications: not fully specified; printed as HAibQGTFTSDYSKYLEERKAK***EFIAWLEGGPSSG-Amid
B15: Compound 38 (peptide)
peptide: HSQGTFTSDYSKYLDERAAK([AEEA-AEEA-γGlu-C18 diacid])EFIAWLEGGPSSG-NH2
modifications: not fully specified; printed as HSQGTFTSDYSKYLDERAAK**EFIAWLEGGPSSG-Amid

One test concerns the target human GLP-1 receptor (human, UniProt P43220 24-463). Put plainly: cell-based or functional assay.
On to B1, for which the “EC50 of GLP-1 receptor mediated cAMP production” value worked out at 0.842 nM.

Take B2: the “EC50 of GLP-1 receptor mediated cAMP production” value stood at 0.532 nM.

For the molecule B3, the “EC50 of GLP-1 receptor mediated cAMP production” value was 0.094 nM.

For the molecule B4, the “EC50 of GLP-1 receptor mediated cAMP production” value was determined as 0.219 nM.

Turning to B5, the “EC50 of GLP-1 receptor mediated cAMP production” value amounted to 0.778 nM.

For B6, the “EC50 of GLP-1 receptor mediated cAMP production” value was 0.371 nM.

In the case of B7, the “EC50 of GLP-1 receptor mediated cAMP production” value amounted to 0.313 nM.

On to B8, for which the “EC50 of GLP-1 receptor mediated cAMP production” value is 0.22 nM.

Regarding B9, the “EC50 of GLP-1 receptor mediated cAMP production” value was determined as 0.52 nM.

In the case of B10, the “EC50 of GLP-1 receptor mediated cAMP production” value was 0.051 nM.

Take B11: the “EC50 of GLP-1 receptor mediated cAMP production” value was 0.119 nM.

With B12, the “EC50 of GLP-1 receptor mediated cAMP production” value stood at 0.0654 nM.

With B13, the “EC50 of GLP-1 receptor mediated cAMP production” value was determined as 0.033 nM.

B14: the “EC50 of GLP-1 receptor mediated cAMP production” value came to 0.13 nM.

In the case of B15, the “EC50 of GLP-1 receptor mediated cAMP production” value is 0.716 nM.

For a further test, the target named is GC receptor. The experiment in a line: cell-based or functional assay.
B1: the “EC50 of GC receptor mediated cAMP production” value came out at 0.725 nM.

On to B2, for which the “EC50 of GC receptor mediated cAMP production” value was determined as 0.316 nM.

B3: the “EC50 of GC receptor mediated cAMP production” value was 0.081 nM.

Regarding B4, the “EC50 of GC receptor mediated cAMP production” value worked out at 0.274 nM.

B5: the “EC50 of GC receptor mediated cAMP production” value is 0.261 nM.

For the molecule B6, the “EC50 of GC receptor mediated cAMP production” value worked out at 0.219 nM.

On to B7, for which the “EC50 of GC receptor mediated cAMP production” value is 0.156 nM.

Turning to B8, the “EC50 of GC receptor mediated cAMP production” value came out at 0.191 nM.

For the molecule B9, the “EC50 of GC receptor mediated cAMP production” value turned out to be 0.024 nM.

For B10, the “EC50 of GC receptor mediated cAMP production” value was 0.058 nM.

Turning to B11, the “EC50 of GC receptor mediated cAMP production” value came out at 0.048 nM.

Regarding B12, the “EC50 of GC receptor mediated cAMP production” value amounted to 0.0574 nM.

With B13, the “EC50 of GC receptor mediated cAMP production” value is 0.025 nM.

Regarding B14, the “EC50 of GC receptor mediated cAMP production” value is 0.314 nM.

For B15, the “EC50 of GC receptor mediated cAMP production” value came to 0.102 nM.
